Here are results for one substance from patent publication US20210063414A1, “METHODS FOR PREVENTING AND/OR TREATING BONE LOSS CONDITIONS BY MODULATING IRISIN” (Dana-Farber Cancer Institute, Inc., priority 2018, published 2021).

Holding throughout (test): Crosslinking/co-immunoprecipitation/mass spectrometry (TMT quantitative proteomics) to identify irisin receptors
What all share (type): binding

The target in assay [1] is T1, MLO-Y4 cell surface proteins (Mus musculus, UniProt P56567).
T1 construct: endogenous in cells; host or cells: MLO-Y4
T1 sequence (P56567 1-97): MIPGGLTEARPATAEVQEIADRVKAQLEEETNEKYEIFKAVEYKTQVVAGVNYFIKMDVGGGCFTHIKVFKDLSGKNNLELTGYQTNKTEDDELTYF
The conditions noted are these: co-precipitated protein Csta (CYTA_MOUSE). As to the method:
(§1) MLO-Y4 cells were seeded on 30×150 mm type-I collagen coated dishes as described in cell culture experiment. At 60% cell density, medium was switched to FreeStyle™ 293 Expression medium. After 4 hours incubation, the cells were chilled on ice for 10 minutes, followed by treatment of 10 nM his-tag irisin or his-tag adipsin for 20 minutes. The cells were then incubated with 1.5 mM DTSSP for 30 minutes on ice to do cross-linking, after washing with 15 ml cold PBS twice. The cross-linking was quenched by addition of a final concentration of 20 mM Tris-pH 7.5. The cells were then harvested and homogenized in 1 ml RIPA buffer containing proteaseinhibitor cocktailand phosphatase-inhibitor cocktail. Whole-cell lysates were homogenized by 10 times passages through a 22G needle fitted to a 3 ml syringe. Homogenized samples were rotated gently in cold room for 20 minutes followed by 15,000×g centrifugation for 10 minutes. After addition of a final concentration of 10 mM imidazole, supernatants were incubated with 100 μl Ni-NTA agarose for 1 hour. After centrifugation at 500×g for 1 minute, the supernatants were aspirated and 1 ml cold RIPA buffer containing 10 mM imidazole were added to the agarose. After 10 minutes rotation in cold room, the supernatants were aspirated and 1 ml cold RIPA buffer containing 30 mM imidazole were added to the agarose. After repeating the washing 3 times, 0.8 ml RIPA buffer containing 250 mM imidazole was added and the agarose was gently rotated in a cold room for 20 minutes. After centrifugation at 1000×g for 2 minutes, the supernatants were transferred to 1.5 ml tube and incubated with 100 μl 0.2% sodium deoxycholate and 100 μl 10% trichloroacetic acid in ice for 1 hour. After centrifugation at 12,000×g for 10 minutes at 4° C., the supernatants were removed and 1 ml cold acetone was added to the pellets followed by vortexing for 10 seconds. After one more washing with cold acetone, the pellets were dried at 37° C., and 39 μl PBS and 13 μl 4×NuPAGE LDS were added to the pellets with a final concentration of 5 mM DTT. Solubilized proteins were incubated at 65° C. for 20 minutes followed by incubation with a final concentration of 14 mM iodoacetamide for 45 minutes in the dark. 38 μl samples were loaded to 4-12% gradient SDS-PAGE for separation followed by Coomassie Blue staining. The gels were submitted to quantitative proteomics.
(§2) For in-gel digestions, gels were stained with Coomassie Blue and were excised into 8 equal segments for control and irisin lanes. Gel pieces were destained and dehydrated with 100% acetonitrile, vacuumed dried, and digested in 25 mM HEPES (pH 8.5) with 500 ng sequencing grade trypsin (Promega) and incubated for an overnight at 37° C. (Shevchenko et al. (1996) Anal. Chem. 68:850-858). Digests were treated with 1% formic acid and purified using C18 Stage-Tips as previously described (Rappsilber et al. (2007) Nat. Protoc. 2:1896-1906). Peptides were eluted with 70% acetonitrile and 1% formic acid, then dried using a speedvac. Isobaric labeling of digested peptides was accomplished using 6-plex tandem mass tag (TMT) reagents (Thermo Fisher Scientific, Rockford, Ill.). Reagents, 5.0 mg, were dissolved in 252 μl acetonitrile (ACN) and 5 μl of the solution was added to the digested peptides dissolved in 25 μl of 200 mM HEPES, pH 8.5. After 1 hour at room temperature, the reaction was quenched by adding 1 μl of 5% hydroxylamine. Labeled peptides were combined and acidified prior to C18 Stage-Tips desalting.
(§3) All LC-MS/MS experiments were performed on an Orbitrap Fusion™ Lumos mass spectrometer (Thermo Fisher Scientific, San Jose, Calif., USA) coupled with a Proxeon EASY-nLC™ 1200 LC pump (Thermo Fisher Scientific). Peptides were separated on a 100 μm inner diameter microcapillary column packed with 35 cm of Accucore™ C18 resin (1.8 μm, 100 Å, Thermo Fisher Scientific). […]

The target of assay [2] is T2, MLO-Y4 cell surface proteins (Mus musculus, UniProt Q9D3P1).
T2 construct: endogenous in cells; host or cells: MLO-Y4
T2 sequence (Q9D3P1 1-638): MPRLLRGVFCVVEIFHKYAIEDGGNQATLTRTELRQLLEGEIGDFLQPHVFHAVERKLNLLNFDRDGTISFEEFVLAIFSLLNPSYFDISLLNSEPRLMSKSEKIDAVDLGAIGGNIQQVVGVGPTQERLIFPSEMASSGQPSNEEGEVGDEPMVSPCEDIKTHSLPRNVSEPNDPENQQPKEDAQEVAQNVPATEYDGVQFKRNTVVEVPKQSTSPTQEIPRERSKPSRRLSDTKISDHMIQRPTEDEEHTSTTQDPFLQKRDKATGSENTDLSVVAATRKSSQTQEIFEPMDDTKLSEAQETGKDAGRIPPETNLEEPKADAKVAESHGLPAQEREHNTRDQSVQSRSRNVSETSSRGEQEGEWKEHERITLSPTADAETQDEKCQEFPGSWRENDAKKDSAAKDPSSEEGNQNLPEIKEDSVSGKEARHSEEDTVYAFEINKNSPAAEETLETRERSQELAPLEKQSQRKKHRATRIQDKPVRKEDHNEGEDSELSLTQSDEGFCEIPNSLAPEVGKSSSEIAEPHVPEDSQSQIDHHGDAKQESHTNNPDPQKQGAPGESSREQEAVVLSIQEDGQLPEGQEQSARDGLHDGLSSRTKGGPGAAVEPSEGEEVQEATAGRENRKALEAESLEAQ
The conditions noted are these: co-precipitated protein Tchhl1 (TCHL1_MOUSE). As to the method:
as §1, §2, §3

The target of assay [3] is T3, MLO-Y4 cell surface proteins (Mus musculus, UniProt Q791V5).
T3 construct: endogenous in cells; host or cells: MLO-Y4
T3 sequence (Q791V5 1-303): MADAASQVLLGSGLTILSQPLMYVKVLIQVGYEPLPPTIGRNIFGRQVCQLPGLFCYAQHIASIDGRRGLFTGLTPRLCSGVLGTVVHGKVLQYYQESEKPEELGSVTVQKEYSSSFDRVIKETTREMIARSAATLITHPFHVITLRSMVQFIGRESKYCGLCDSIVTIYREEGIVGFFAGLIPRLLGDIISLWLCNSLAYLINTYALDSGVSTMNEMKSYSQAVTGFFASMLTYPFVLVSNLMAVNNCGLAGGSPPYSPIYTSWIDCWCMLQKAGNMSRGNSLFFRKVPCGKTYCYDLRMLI
The conditions noted are these: co-precipitated protein Mteh2 (MTCH2_MOUSE). As to the method: as §1, §2, §3

Regarding adipsin, the TMT signal-to-noise ratio in assay [1] was determined as 160.416; in assay [2] it was 1810.14; in assay [3] it was 101.527.
